In US20030170785A1 (ORTHO MCNEIL PHARMACEUTICAL, published 2003):

B1: human calcium channel α2δ-4 subunit (other)
chain: MAVALGTRRRDRVKLWADTFGGDLYNTVTKYSGSLLLQKKYKDVESSLKIEEVDGLELVRKFSEDMENMLRRKVEAVQNLVEAAEEADLNHEFNESLVFDYYNSVLINERDEKGNFVELGAEFLLESNAHFSNLPVNTSISSVQLPTNVYNKDPDILNGVYMSEALNAVFVENFQRDPTLTWQYFGSATGFFRIYPGIKWTPDENGVITFDCRNRGWYIQAATSPKDIVILVDVSGSMKGLRMTIAKHTITTILDTLGENDFVNIIAYNDYVHYIEPCFKGILVQADRDNREHFKLLVEELMVKGVGVVDQALREAFQILKQFQEAKQGSLCNQAIMLISDGAVEDYEPVFEKYNWPDCKVRVFTYLIGREVSFADRMKWIACNNKGYYTQISTLADTQENVMEYLHVLSRPMVINHDHDIIWTEAYMDSKLLSSQAQSLTLLTTVAMPVFSKKNETRSHGILLGVVGSDVALRELMKLAPRYKLGVHGYAFLNTNNGYILSHPDLRPLYREGKKLKPKPNYNSVDLSEVEWEDQAESLRTAMINRETGTLSMDVKVPMDKGKRVLFLTNDYFFTDISDTPFSLGAVLSRGHGEYILLGNTSVEEGLHDLLHPDLALAGDWIYCITDIDPDHRKLSQLEAMIRFLTRKDPDLECDEELVREVLFDAVVTAPMEAYWTALALNMSEESEHVVDMAFLGTRAGLLRSSLFVGSEKVSDRKFLTPEDEASVFTLDRFPLWYRQASEHPAGSFVFNLRWAEGPESAGEPMVVTASTAVAVTVDKRTAIAAAAGVQMKLEFLQRKFWAATRQCSTVDGPYTQSCEDSDLDCFVIDNNGFILISKRSRETGRFLGEVDGAVLTQLLSMGVFSQVTMYDYQAMCKPSSHHHSAAQPLVSPISAFLTATRWLLQELVLFLLEWSVWGSWYDRGAEAKSVFHHSHKHKKQDPLQPCDTEYPVFVYQPAIREANGIVECGPCQKVFVVQQIPNSNLLLLVTDPTCDCSIFPPVLQEATEVKYNASVKCDRMRSQKLRRRPDSCHAFHPEVRVEADRGWAGFSSPNPLCLGLCPCRQEHIGMPMNTPVPVLLGGNIRVYAL
B2: human calcium channel α2δ-4 subunit tagged with HA epitope (other, not shown: small tags and cut ends)
chain: B1 chain
notes: Expressed by transient co-transfection with CaV1.2 (α1C) and β3 in HEK293 cells and tested in detergent lysates; also called α2δ-4(HA)

Key:
[1] = target: CaV1.2 (α1C) L-type calcium channel subunit; assay: cell-based or functional assay
[2] = target: T1, Protein A Sepharose CL-4B (Pharmacia) (UniProt P38507 37-477); assay: immunoprecipitation from HEK293 lysates with protein-A beads only, Western blot with anti-HA Ab
T1 construct: Used alone (without anti-CaV1.2 antibody) as the negative control of the reciprocal immunoprecipitation; also called protein-A beads
Protocol: Formation of a stable complex of α₂δ-4 with other channel subunits was tested by coimmunprecipitation. The α₂δ-4 subunit was first tagged with an HA epitope and co-transfected with CaV1.2 (α1C) and β₃ subunits into HEK cells. Co-immunoprecipitation was carried out with transient transfected HEK 293 cells by constructs of α1C, β₃ and α₂δ-4 tagged with HA epitope. Two days after the transfection, the cells (from two 150 mm plates) were harvested and washed with PBS. The cells were then resuspended in 2 ml of detergent extraction buffer: 1% (vol/vol) Nonidet P-40, 0.5% deoxycholate, 150 mM NaCl, 5 mM EDTA, 50 mM Tris-HCl (pH 8.0) and 20 μl of protease inhibitor cocktail (Sigma), followed 10 passages each through 20 and 26-gauge needles. Cell extracts were cleared by centrifugation. […] After incubated at 4° C. for overnight, the beads were precipitated by brief centrifugation, and washed 3 times with 1 ml of lysis buffer. Finally, 100 μl of 1×SDS loading buffer were added, and 20 μl were subjected to 4-20% SDS. The co-precipitated subunits were then analyzed by Western blot with indicated antibodies.

| Binder | Ca^2+ influx (fluorescence change after depolarization with 50 mM KCl) in transfected HEK 293 cells [1] [fold] | binding result [2] |
| --- | --- | --- |
| B1 | 6 | – |
| B2 | – | no binding |
